{"source": "paper PMC4072592", "about": "“The EJC Binding and Dissociating Activity of PYM Is Regulated in Drosophila” (PLoS Genetics, 2014)", "binders": {"B1": {"name": "Y14-Mago heterodimer, endogenous in S2 cells (complex)", "chain 1": "not shown", "chain 2": "not shown", "notes": "Y14 (Tsunagi), Drosophila, endogenous; Mago nashi (Mago), Drosophila, endogenous; also called Mago and Y14; Mago-Y14; source: endogenous, cytoplasmic extract of Drosophila S2 cells"}}, "target": "T1, FL-PYM-GFP (S2 cells) (Drosophila, UniProt P82804 1-207)", "T1 construct": "Drosophila PYM (wibg, CG30176), full length coding region amplified from ovarian cDNA; also called GFP-tagged FL-PYM; source: S2 cells, transiently transfected, in cytoplasmic extract; not shown: eGFP, C-terminal, kept", "T1 sequence (looked up)": "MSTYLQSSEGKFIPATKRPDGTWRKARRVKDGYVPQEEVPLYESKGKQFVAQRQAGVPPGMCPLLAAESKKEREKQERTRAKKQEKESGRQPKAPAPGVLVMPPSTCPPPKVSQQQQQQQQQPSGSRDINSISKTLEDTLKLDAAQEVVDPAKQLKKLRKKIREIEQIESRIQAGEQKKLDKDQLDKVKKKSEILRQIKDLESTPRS", "assay": "co-IP + cross-linking; as the native GFP-Trap IP from S2 cell extracts, but extracts cross-linked with 1 mM DSP for 1 h at 4°C before the IP; blots quantified by densitometry", "conditions": "partners not purified", "data": [{"binder": "B1", "values": [{"measurement": "fold increase of binding upon DSP treatment against native", "value": 1.7, "unit": "fold"}]}]}
